The text below walks through data of PMC5768722.

The target of the experiment is Pertuzumab Cλ variants. Nature of the experiment: BLI; antibody light chain variants pre-loaded on Anti-hIgG-Fc Capture (AHC) biosensors, Her2 at 100 nM to 6.25 nM, Octet QKe, 1x kinetic buffer. Background: Biolayer interferometry detects binding as a change in optical thickness at a sensor tip.

The term Kd denotes a measure of binding affinity in units of concentration. Higher therefore signals a looser complex. As for “HIS-tagged Her2 (recombinant extracellular portion) (from UniProt P04626 23-652) (domain or fragment)”, the Kd was 0.77 to 1.42 nM.
